T1: recombinant human integrin α6β4 (human, UniProt P23229;P16144)
T1 chain 1: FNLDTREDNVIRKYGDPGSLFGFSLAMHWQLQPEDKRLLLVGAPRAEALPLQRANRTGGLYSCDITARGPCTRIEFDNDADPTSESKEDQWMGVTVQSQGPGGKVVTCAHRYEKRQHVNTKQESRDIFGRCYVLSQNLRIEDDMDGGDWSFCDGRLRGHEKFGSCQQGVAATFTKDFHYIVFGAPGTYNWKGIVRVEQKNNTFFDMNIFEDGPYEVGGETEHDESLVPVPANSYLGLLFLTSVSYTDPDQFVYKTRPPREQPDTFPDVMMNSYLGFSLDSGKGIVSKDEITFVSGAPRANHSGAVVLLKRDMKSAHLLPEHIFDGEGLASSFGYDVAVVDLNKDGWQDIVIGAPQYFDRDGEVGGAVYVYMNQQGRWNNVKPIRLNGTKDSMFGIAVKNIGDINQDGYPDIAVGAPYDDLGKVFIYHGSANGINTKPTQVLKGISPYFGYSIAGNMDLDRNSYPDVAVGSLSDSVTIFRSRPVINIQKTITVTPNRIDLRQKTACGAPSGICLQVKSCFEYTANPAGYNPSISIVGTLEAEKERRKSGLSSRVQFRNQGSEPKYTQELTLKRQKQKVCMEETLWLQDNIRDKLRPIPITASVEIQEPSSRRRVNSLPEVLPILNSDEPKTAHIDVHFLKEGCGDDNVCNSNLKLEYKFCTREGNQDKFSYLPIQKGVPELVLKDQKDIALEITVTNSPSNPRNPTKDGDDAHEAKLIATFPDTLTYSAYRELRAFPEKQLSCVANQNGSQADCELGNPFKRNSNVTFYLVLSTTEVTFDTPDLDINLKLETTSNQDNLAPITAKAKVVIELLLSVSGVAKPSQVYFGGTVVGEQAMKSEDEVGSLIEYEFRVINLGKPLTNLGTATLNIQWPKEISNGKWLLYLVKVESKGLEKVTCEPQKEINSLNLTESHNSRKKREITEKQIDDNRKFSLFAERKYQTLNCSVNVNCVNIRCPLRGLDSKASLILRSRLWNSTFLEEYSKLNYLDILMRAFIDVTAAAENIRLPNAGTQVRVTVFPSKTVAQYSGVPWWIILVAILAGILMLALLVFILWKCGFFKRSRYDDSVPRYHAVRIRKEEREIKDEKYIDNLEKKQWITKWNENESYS
T1 chain 2: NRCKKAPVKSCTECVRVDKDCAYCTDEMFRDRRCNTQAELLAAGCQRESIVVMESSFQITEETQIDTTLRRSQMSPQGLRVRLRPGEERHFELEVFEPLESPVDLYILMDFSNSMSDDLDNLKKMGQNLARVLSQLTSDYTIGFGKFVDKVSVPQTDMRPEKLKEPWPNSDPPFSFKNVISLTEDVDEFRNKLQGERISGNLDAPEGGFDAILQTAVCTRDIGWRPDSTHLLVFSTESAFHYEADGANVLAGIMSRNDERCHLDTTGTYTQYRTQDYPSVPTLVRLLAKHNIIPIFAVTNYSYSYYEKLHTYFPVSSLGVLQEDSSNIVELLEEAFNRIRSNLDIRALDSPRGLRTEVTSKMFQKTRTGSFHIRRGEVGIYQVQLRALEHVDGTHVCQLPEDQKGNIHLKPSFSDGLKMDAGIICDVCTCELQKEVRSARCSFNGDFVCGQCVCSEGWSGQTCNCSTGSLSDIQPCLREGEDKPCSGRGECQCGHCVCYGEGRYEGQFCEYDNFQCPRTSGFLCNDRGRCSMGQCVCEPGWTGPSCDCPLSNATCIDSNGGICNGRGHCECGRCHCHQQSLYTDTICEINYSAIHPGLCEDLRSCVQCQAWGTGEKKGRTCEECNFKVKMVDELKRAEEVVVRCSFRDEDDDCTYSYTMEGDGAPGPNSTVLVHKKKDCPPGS

B1: HAdV-40 penton base protein, recombinant, soluble (natural protein)
chain: MRRAVGVPPVMAYAEGPPPSYESVMETADLPATLQALHVPPRYLGPTEGRNSIRYSELAPLYDTTRVYLVDNKSADIASLNYQNDHSNFQTTVVQNNDFTPTEAGTQTINFDDRSRWGGDLKTILRTNMPNINEFMSTNKFRARVMVEKVNRKTNAPRYEWFEFTLPEGNYSETMTIDLMNNAIVDNYLAVGRQNGVLESDIGVKFDTRNFRLGWDPVTKLVMPGVYTNEAFHPDIVLLPGCGVDFTQSRLNNLLGIRKRMPFQKGFQIMYEDLEGGNIPALLDVEKYEASIKEAQEIRGADFKPNPQDLEIVPVEKDSKERSYNLLEGDKNNTAYRSWFLAYNYGDAEKGVKSWTLLTTTDVTCGSQQVYWSLPDMMQDPVTFRPSTQVSNYPVVGVELLPVHAKSFYNEQAVYSQLIRQSTALTHIFNRFPENQILVRPPAPTITTVSENVPALTDHGTLPLRSSISGVQRVTITDARRRTCPYVHKALGIVAPKVLSSRTF
B2: HAdV-5 penton base protein, recombinant, soluble (natural protein)
chain: MRRAAMYEEGPPPSYESVVSAAPVAAALGSPFDAPLDPPFVPPRYLRPTGGRNSIRYSELAPLFDTTRVYLVDNKSTDVASLNYQNDHSNFLTTVIQNNDYSPGEASTQTINLDDRSHWGGDLKTILHTNMPNVNEFMFTNKFKARVMVSRLPTKDNQVELKYEWVEFTLPEGNYSETMTIDLMNNAIVEHYLKVGRQNGVLESDIGVKFDTRNFRLGFDPVTGLVMPGVYTNEAFHPDIILLPGCGVDFTHSRLSNLLGIRKRQPFQEGFRITYDDLEGGNIPALLDVDAYQASLKDDTEQGGGGAGGSNSSGSGAEENSNAAAAAMQPVEDMNDHAIRGDTFATRAEEKRAEAEAAAEAAAPAAQPEVEKPQKKPVIKPLTEDSKKRSYNLISNDSTFTQYRSWYLAYNYGDPQTGIRSWTLLCTPDVTCGSEQVYWSLPDMMQDPVTFRSTRQISNFPVVGAELLPVHSKSFYNDQAVYSQLIRQFTSLTHVFNRFPENQILARPPAPTITTVSENVPALTDHGTLPLRNSIGGVQRVTITDARRRTCPYVYKALGIVSPRVLSSRTF
B3: HAdV-41 penton base protein, recombinant, soluble (natural protein)
chain: MRRAVGVPPVMAYAEGPPPSYESVMGSADSPATLEALYVPPRYLGPTEGRNSIRYSELAPLYDTTRVYLVDNKSADIASLNYQNDHSNFQTTVVQNNDFTPAEAGTQTINFDERSRWGADLKTILRTNMPNINEFMSTNKFKARLMVEKKNKETGLPRYEWFEFTLPEGNYSETMTIDLMNNAIVDNYLEVGRQNGVLESDIGVKFDTRNFRLGWDPVTKLVMPGVYTNEAFHPDIVLLPGCGVDFTQSRLSNLLGIRKRLPFQEGFQIMYEDLEGGNIPALLDVAKYEASIQKAKEEGKEIGDDTFATRPQDLVIEPVAKDSKNRSYNLLPNDQNNTAYRSWFLAYNYGDPKKGVQSWTLLTTADVTCGSQQVYWSLPDMMQDPVTFRPSTQVSNYPVVGVELLPVHAKSFYNEQAVYSQLIRQSTALTHVFNRFPENQILVRPPAPTITTVSENVPALTDHGTLPLRSSISGVQRVTITDARRRTCPYVHKALGIVAPKVLSSRTF

Legend:
Assay in all cases: SPR
[1] = target: T2, recombinant human integrin α6β1 (human, UniProt P23229;P05556)
[2] = target: T1, recombinant human integrin α6β4
[3] = target: T1, recombinant human integrin α6β4
[4] = target: T2, recombinant human integrin α6β1; remark: listed apart in the source

Binder	Kd [1]	Kd [2]	koff [3]	koff [4]
B1	426 nM	32.7 nM	0.0049 s⁻¹	–
B2	1560 nM	95 nM	0.0045 s⁻¹	0.0059 s⁻¹
B3	473 nM	41.2 nM	0.022 s⁻¹	0.011 s⁻¹

Source: PMC6030200 (2018)
